B1: Pyruvate dehydrogenase protein X component, mitochondrial, residues 181 to 227; numbered along this chain, O00330 (parent)
chain: RFRLSPAARNILEKHSLDASQGTATGPRGIFTKEDALKLVQLKQTGK

Variants of: B1
Assay: abundance fitness (aPCA) (normalised: wild type 0, dead -1); higher = more abundant; growth selection in yeast, the domain comes from the species named
Details: Homo sapiens

Abundance fitness: each site, then its substitutions
A24: P -0.191; C -0.473
V40: R -0.439; Q -0.252; G -0.545; I -0.411; H -1.01; A -0.338; F -0.592; S -0.381
T25: P -0.559; M -0.423; G -0.445; Y -0.86; A -0.566; D -0.582; V -0.476; R -0.563; I -0.668
P6: W -0.261
L37: K -0.088; H -0.544; S -0.286; G -0.233; V -0.165; W -0.293; T -0.072
K38: H -0.149; F -0.781; L -0.775; I -0.604; G -0.354; R 0.042; N -0.258; V -0.391; C -0.453; S 0.007; T -0.643
H15: I -0.906; L -0.813; V -0.506; Y -0.176; F -0.294; S -0.517; T -0.361; P -0.575; E -0.138
L39: Q -0.619; W -0.731; K -0.545; D -0.121; E -0.28; R -0.484; Y -0.874; S -0.127; C -0.694
F31: K -0.423; T -0.171; A -0.451; L -0.412; C -0.236; Q -0.424; V -0.349; P -0.206
S5: L -0.725; I -0.135; D -0.098; T -0.032
I30: H -0.359; Y -0.292; R -0.413; N -0.268; P -0.363; G -0.271; C -0.234; M 0.137; S -0.145; T 0.068; Q -0.178
P27: Y -0.689; V -0.515; H -0.309; I -0.547; K -0.146

From the Human Domainome abundance scans (Beltran et al. 2025)
